Experiment [1] concerns the target T1, cynomolgus TROP2-his protein (cynomolgus, UniProt P09758 27-272 (human entry), limits assumed).
T1 construct: also called Cyno TROP2-his; Cynomolgus monkey TROP2-his protein
T1 chain: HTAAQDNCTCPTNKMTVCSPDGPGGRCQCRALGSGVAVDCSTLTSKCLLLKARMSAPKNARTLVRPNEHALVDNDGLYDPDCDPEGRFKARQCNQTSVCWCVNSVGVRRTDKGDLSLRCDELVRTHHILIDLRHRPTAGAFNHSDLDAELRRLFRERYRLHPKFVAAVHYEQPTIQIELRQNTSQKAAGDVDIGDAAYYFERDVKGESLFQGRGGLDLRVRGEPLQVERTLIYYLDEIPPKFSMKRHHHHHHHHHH
As to the kind of experiment: indirect ELISA, plate coated with 1 ug/ml TROP2-his; bacterial culture supernatant. Here is the method: ELISA plates were coated with 100 μl 1 μg/ml human TROP2-his protein (in house made with SEQ ID NO: 16), or 1 μg/ml cynomolgus TROP2-his protein (in house made with SEQ ID NO: 19) in carbonate/bicarbonate buffer (pH 9.6) overnight at 4° C., washed once with wash buffer (PBS+0.05% v/v Tween-20, PBST) and then blocked with 200 μl/well blocking buffer (5% w/v non-fatty milk in PBST) for 2 hours at 37° C. Plates were washed 4 times, and respectively incubated with 100 μl bacterial culture supernatant, and sacituzumab (used as the benchmark, also referred to as BM or BM1 hereinafter, in house made with heavy chain and light chain amino acid sequences set forth in SEQ ID NOs: 17 and 18) in 5% w/v non-fatty milk in PBST at 200 ng/ml, for 40 minutes at 37° C. The plates were washed 4 times, and incubated with THE™ HA Tag Antibody [HRP], mAb, Mouse Antibody (1:5000 dilution in PBST, GenScript, Cat #A01296, 100 μl/well, for plates with bacterial culture supernatans of the disclosure) or Peroxidase AffiniPure F(ab′)₂ Fragment Goat Anti-Human IgG, Fey fragment specific (Jackson Immunoresearch, Cat #109-036-098, for plates with the benchmark), for 40 minutes at 37° C. After a final wash, plates were incubated with 100 μl/well ELISA substrate TMB (Innoreagents, Cat #TMB-S-002) at room temperature. The reaction was stopped in 3-10 minutes with 50 μl/well 1M H₂SO₄, and the absorbance of each well was read on a microplate reader using dual wavelength mode with 450 nm for TMB and 630 nm as the reference wavelength. When the OD of a sample well was 2 times higher than the OD of the blank well, the sample can be determined as positive.

Experiment [2] has as its target T2, human TROP2-his protein (human, UniProt P09758 27-274).
T2 construct: also called biotin labeled human TROP2-his protein
T2 sequence: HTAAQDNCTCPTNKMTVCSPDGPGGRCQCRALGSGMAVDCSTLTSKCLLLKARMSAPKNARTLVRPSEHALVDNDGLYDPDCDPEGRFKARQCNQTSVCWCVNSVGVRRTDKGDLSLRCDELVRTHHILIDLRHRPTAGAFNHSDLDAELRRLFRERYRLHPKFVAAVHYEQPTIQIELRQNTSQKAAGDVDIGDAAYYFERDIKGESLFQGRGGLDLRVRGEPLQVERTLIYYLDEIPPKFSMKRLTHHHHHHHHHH
As to the kind of experiment: SPR Biacore; antibody captured on anti-human IgG chip, 40 nM human TROP2-his as analyte. The source says:
The purified anti-TROP2 mouse monoclonal antibodies (mAbs) were characterized for binding affinity and binding kinetics by Biacore T200 system (GE healthcare, Pittsburgh, PA, USA). Briefly, goat anti-human IgG (GE healthcare, Cat #BR100839, Human Antibody Capture Kit) was covalently linked to a CM5 chip (carboxy methyl dextran coated chip from GE healthcare #BR100530) via primary amines, using a standard amine coupling kit (GE healthcare, Pittsburgh, PA, USA) provided by Biacore. Un-reacted moieties on the chip (biosensor) surface were blocked with ethanolamine. The anti-TROP2 antibodies of the disclosure and the benchmark at the concentration of 2 μg/ml were respectively flowed onto the chip at a flow rate of 10 μL/min. Then, serially diluted human TROP2-his protein (prepared in-house with SEQ ID NO: 16), or cynomolgus TROP2-his protein (prepared in-house with SEQ ID NO: 19), 2-fold dilution in HBS-EP⁺ buffer (provided by Biacore) starting at 160 nM, were flowed onto the chip at a flow rate of 30 μL/min. The antigen-antibody association kinetics was followed for 2 minutes and the dissociation kinetics was followed for 10 minutes. The association and dissociation curves were fit to a 1:1 Langmuir binding model using BIAcore evaluation software.
For the BIAcore test, cell supernatants containing the 01-9F-Fc variants were respectively flowed onto the chip instead of the purified anti-TROP2 antibodies, at a flow rate of 10 μL/min, and 40 nM human TROP2-his proteins (prepared in-house with SEQ ID NO: 16) in HBS-EP⁺ buffer (provided by Biacore), instead of serially diluted human TROP2-his proteins, were flowed onto the chip at a flow rate of 30 μL/min.

The target of experiment [3] is T2, human TROP2-his protein. Put plainly: competitive ELISA: soluble benchmark pre-mixed with biotin labeled human TROP2-his, added to plate coated with the benchmark (self-competition); unit taken from the x axis (ng/mL). Here is the method:
The anti-TROP2 antibodies were tested for their epitope binding in a competitive ELISA assay. Briefly, 100 μl of the benchmark at 1 μg/mL in PBS was coated on 96-well micro plates for 2 hours at 37° C. ELISA plates were washed once with wash buffer (PBS+0.05% v/v Tween-20, PBST) and then blocked with 200 μl blocking buffer (5% w/v non-fatty milk in PBST) for 2 hours at 37° C. While blocking, the anti-TROP2 antibodies of the disclosure or controls were diluted with biotin labeled human TROP2-his protein (SEQ ID NO: 16, 34 ng/mL in 2.5% w/v non-fatty milk in PBST), starting at 80 nM with a 5-fold serial dilution, and incubated at room temperature for 40 minutes. After plate washing 4 times, the antibody/TROP2-his protein mixtures were added to benchmark coated plates, 100 μl per well. After incubation at 37° C. for 40 minutes, plates were washed 4 times again using wash buffer. Then the plates were added and incubated with 100 μl Peroxidase Streptavidin (1:10000 dilution in PBST buffer, Jackson Immunoresearch, Cat #016-030-084) for 40 minutes at 37° C. Plates were washed again using wash buffer. […] The absorbance of each well was read on a microplate reader using dual wavelength mode with 450 nm for TMB and 630 nm as the reference wavelength, and the OD (450-630) values were plotted against antibody concentration. Data was analyzed using Graphpad Prism software and IC₅₀ values were reported.

The values below come from US20230383007A1 (BIOSION, published 2023).

B1: single domain antibody 01-9F (VHH)
VHH: QVQLVESGGGSVQAGGSLRLSCVVSGLPYERYCVAWFRQGPGKEREGVARILSDGTTSYSDSVKGRFTISKDNAKNTLYLQMNSLKSEDTATYYCAAEAFRPFTPSDGDCTTVLGIDYWGKGTPVTVSS
For B1, the “Indirect ELISA OD (450-630)” value in experiment [1] is 0.59 OD (450-630). Further, in experiment [2], the Kd worked out at 0.202 nM, the koff was 0.000101 s⁻¹ and the kon stood at 502000 M⁻¹ s⁻¹.

B2: sacituzumab (benchmark, an analog of sacituzumab, in house made) (antibody, human IgG1, kappa, V domains shown)
VH: SVQLQQSGSELKKPGASVKVSCKASGYTFTNYGMNWVKQAPGQGLKWMGWINTYTGEPTYTDDFKGRFAFSLDTSVSTAYLQISSLKADDTAVYFCARGGFGSSYWYFDVWGQGSLVTVSS
VL: DIQLTQSPSSLSASVGDRVSITCKASQDVSIAVAWYQQKPGKAPKLLIYSASYRYTGVPDRFSGSGSGTDFTLTISSLQPEDFAVYYCQQHYITPLTFGAGTKVEIKR
notes: also called BM; BM1
Molecule B2 displayed a half-maximal inhibitory concentration (IC50) in experiment [3] of 0.0543 µg/mL.
